Consider one substance from US20110177065A1.

The target in this assay is IL-1 receptor (human) (UniProt P14778). Put plainly: cell-based or functional assay.
Chain of UniProt P14778 (P14778 18-569): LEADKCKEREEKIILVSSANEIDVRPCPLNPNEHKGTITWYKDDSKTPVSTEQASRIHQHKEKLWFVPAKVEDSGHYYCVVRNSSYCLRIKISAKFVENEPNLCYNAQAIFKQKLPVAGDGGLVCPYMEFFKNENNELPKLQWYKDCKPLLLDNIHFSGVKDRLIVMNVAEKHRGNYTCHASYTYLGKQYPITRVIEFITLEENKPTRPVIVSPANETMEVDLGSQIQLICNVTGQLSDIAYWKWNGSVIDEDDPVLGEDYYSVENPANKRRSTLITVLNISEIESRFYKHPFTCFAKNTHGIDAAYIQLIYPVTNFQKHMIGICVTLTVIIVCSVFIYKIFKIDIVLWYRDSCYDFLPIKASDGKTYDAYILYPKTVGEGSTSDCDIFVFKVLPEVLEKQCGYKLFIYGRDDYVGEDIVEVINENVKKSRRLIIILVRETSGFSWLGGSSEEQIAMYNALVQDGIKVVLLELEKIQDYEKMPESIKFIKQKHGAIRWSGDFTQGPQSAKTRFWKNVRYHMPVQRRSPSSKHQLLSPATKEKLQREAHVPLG

Regarding “IL-1 receptor antagonist (IL-1Ra) (from UniProt P18510 26-177) (ligand)”, the antiviral activity of IFN-gamma (endpoint of 50% protection from viral cytopathic effect, human WISH cells) is 125 IU/ml and the level of IL-18BP in HaCat culture supernatants after IFN-gamma (ELISA) came out at 0.35 ng/mL.
